Where only a bound is given, the exact number is not on record here.

For orientation: stoichiometry N means the number of molecules, sites or subunits per partner or assembly.

Common to all, as to assay: native gel or EMSA; single recombinant Kai proteins or two of them together, 16 h at 30 °C in phosphorylation assay buffer (0.2 µg/µl dephosphorylated Strep-KaiC3, 0.1 µg/µl of the others); 4-16% clear native PAGE at 4 °C; Coomassie or anti-His blot
Series [1] deals with KaiA3-His6 (Synechocystis sp. PCC 6803).
Series [2] has as its target Strep-KaiC3 (Synechocystis sp. PCC 6803).
The target of series [3] is KaiB3 (recombinant, GST-tag removed) (Synechocystis sp. PCC 6803).
Series [4] deals with the molecule itself.

In the case of KaiA3-His6 (natural protein), in series [1], the stoichiometry N is above 2. As for Strep-KaiC3 (natural protein), in series [2], the stoichiometry N is 6. Consider “KaiB3 (recombinant, GST-tag removed) (natural protein)”, for which, in series [3], the stoichiometry N worked out at 4.

B1: Synechococcus KaiA (recombinant, GST-tag removed) (natural protein, Synechococcus elongatus PCC 7942, UniProt Q79PF6 1-284, looked up)
chain: MLSQIAICIWVESTAILQDCQRALSADRYQLQVCESGEMLLEYAQTHRDQIDCLILVAANPSFRAVVQQLCFEGVVVPAIVVGDRDSEDPDEPAKEQLYHSAELHLGIHQLEQLPYQVDAALAEFLRLAPVETMADHIMLMGANHDPELSSQQRDLAQRLQERLGYLGVYYKRDPDRFLRNLPAYESQKLHQAMQTSYREIVLSYFSPNSNLNQSIDNFVNMAFFADVPVTKVVEIHMELMDEFAKKLRVEGRSEDILLDYRLTLIDVIAHLCEMYRRSIPRET
notes: KaiA of Synechococcus elongatus PCC 7942; plasmid provided by T. Kondo; Migrates at about 60 kDa on clear native PAGE (dimer); source: E. coli BL21(DE3), purified (glutathione-agarose 4B, PreScission cleavage); not shown: GST, N-terminal, cleaved
For the molecule B1, the “stoichiometry N” value in series [4] worked out at 2.

For the origin of these results see PMC11372060, “Two KaiABC systems control circadian oscillations in one cyanobacterium” (Nature Communications, 2024).
